Biological target: PSA (prostate specific antigen) (UniProt P07288 25-261)
Assay: cell-based or functional assay

Chain of PSA (prostate specific antigen) (P07288 25-261 limits assumed): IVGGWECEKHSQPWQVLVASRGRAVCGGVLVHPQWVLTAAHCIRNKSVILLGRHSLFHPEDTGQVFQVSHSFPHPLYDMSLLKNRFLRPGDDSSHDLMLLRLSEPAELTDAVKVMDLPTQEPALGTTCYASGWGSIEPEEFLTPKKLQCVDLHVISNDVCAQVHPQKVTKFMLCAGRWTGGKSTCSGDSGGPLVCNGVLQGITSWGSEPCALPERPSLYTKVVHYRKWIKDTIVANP

B1: H6-68-AP-PSA-VHH (other)
chain: SSGSKALLKGVRDFNPISACVCLLENSSDGHSERLFGIGFGPYIIANQHLFRRNNGELTIKTMHGEFKVKNSTQLQMKPVEGRDIIVIKMAKDFPPFPQKLKFRQPTIKDRVCMVSTNFQQKSVSSLVSESSHIVHKEDTSFWQHWITTKDGQCGSPLVSIIDGNILGIHSLTHTTNGSNYFVEFPEKFVATYLDAADGWCKNWKFNADKISWGSFILWEDAPGGEHSSKLQSGAGREYVRFAPGGSGGSGGSGGSGGSGGDVQLQESGGGSVQAGGSLRLSCVASGWIYIPPCMAWFRQAPGKERERVATINPSGRTYYADSTKGRFRISQDNVKRTLYLYMNSLKPEDTATYYCAADDGTCPRMEFDDWGQGTQVTVSSGGSHHHHHH
How did the “sensitivity of the PSA biosensor assay” value turn out when B1 was run?
Its value is 2 fold better than the N-terminal VHH configuration.

— patent publication US9791436 (UNIVERSITY OF QUEENSLAND, dated 2017)
